This note sets out measurements from article PMC3931628.

Assay [1] deals with nectin-1 (human (endogenous in primary tonsil epithelial cells)) (UniProt Q15223).
The target is the same in assay [2]. This is another data set of the same source.

UniProt Q15223, sequence (Q15223 31-517): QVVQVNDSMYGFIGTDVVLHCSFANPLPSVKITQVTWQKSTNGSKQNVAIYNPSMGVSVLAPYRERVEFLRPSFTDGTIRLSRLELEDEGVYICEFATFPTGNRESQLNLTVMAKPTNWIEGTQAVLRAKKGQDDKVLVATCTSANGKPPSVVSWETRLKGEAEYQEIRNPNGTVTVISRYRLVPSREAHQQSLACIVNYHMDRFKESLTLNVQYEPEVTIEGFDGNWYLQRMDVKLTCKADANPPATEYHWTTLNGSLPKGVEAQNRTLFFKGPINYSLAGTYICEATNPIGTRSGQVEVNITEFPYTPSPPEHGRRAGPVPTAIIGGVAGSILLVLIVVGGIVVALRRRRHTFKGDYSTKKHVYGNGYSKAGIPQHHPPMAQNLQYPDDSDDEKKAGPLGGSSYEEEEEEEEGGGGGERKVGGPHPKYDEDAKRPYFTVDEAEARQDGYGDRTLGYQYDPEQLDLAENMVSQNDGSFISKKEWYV

On to “truncated form of HSV-1 gD ectodomain gD(306t) (domain or fragment)”, for which, in assay [1], the HSV-1 infection (percent of infected cells, 24 h) of polarized tonsil cells treated with active tat/gp120 or HIV virions; reduction by preincubation with anti-nectin-1 antibody CK-8 (10 µg/ml) stood at 70%. In assay [2], the HSV-1 plaque numbers in polarized tonsil cells treated with active tat/gp120; reduction by anti-gD antibodies (10 µg/ml) is 30%; the HSV-1 plaque numbers in polarized tonsil cells treated with active tat/gp120; reduction by anti-nectin-1 antibodies (10 µg/ml) turned out to be 40%; the HSV-1 plaque numbers in polarized tonsil cells treated with active tat/gp120; reduction by the combination of anti-gD and anti-nectin-1 antibodies came to 60%; the HSV-1 plaque size (infected cells per plaque, cell-to-cell spread) in polarized tonsil cells treated with active tat/gp120; reduction by anti-gD antibodies (10 µg/ml) was found to be 60%. Moreover, in assay [2], the HSV-1 plaque size (infected cells per plaque, cell-to-cell spread) in polarized tonsil cells treated with active tat/gp120; reduction by anti-nectin-1 antibodies (10 µg/ml) amounted to 50%; the HSV-1 plaque size (infected cells per plaque, cell-to-cell spread) in polarized tonsil cells treated with active tat/gp120; reduction by the combination of anti-nectin-1 and anti-gD antibodies is 70%.
